This passage reports stoichiometry N results from PMC10488932.

Test [1] deals with hybrid chaperone protein ADGroEL–SacSm (Escherichia coli | Sulfolobus acidocaldarius). As to the kind of experiment: dynamic light scattering; particle size under native conditions, Zetasizer Nano ZSP, 25 °C, detection angle 173°.
In test [2] the target is Sm-like protein from Sulfolobus acidocaldarius (SacSm) (Sulfolobus acidocaldarius). Described as above.

For the substance hybrid chaperone protein ADGroEL–SacSm, the stoichiometry N in test [1] was 7. “Sm-like protein from Sulfolobus acidocaldarius (SacSm) (natural protein)” came in with a stoichiometry N in test [2] of 7.

As usually defined, the stoichiometry N is the number of molecules, sites or subunits per partner or assembly.
